Results published in patent publication US20080194701A1, “Bifunctional Enzyme with Y-Glutamylcysteine Synthetase and Glutathione Synthetase Activity and Uses Thereof” (priority 2004, published 2008).

What was measured:
[1] = test system: N[C@@H](CCC(=O)N[C@@H](CS)C(=O)O)C(=O)O; experiment: purified protein, by the assay type; settings: other: substrate Km, GS activity
N[C@@H](CS)C(=O)O = experiment: purified protein, by the assay type; settings: other: substrate Km, γ-GCS activity
[2] = molecular target: S. agalactiae γ-glutamylcysteine synthetase-glutathione synthetase (γ-GCS-GS) with an N-terminal His8-tag (Streptococcus agalactiae) (UniProt Q8DXM9); experiment: cell-based or functional assay
E. faecalis γ-GCS-GS [3] = molecular target: T1, E. faecalis γ-GCS-GS (Enterococcus faecalis, UniProt Q82ZG8); experiment: γ-GCS activity of E. faecalis γ-GCS-GS
E. faecalis γ-GCS-GS [4] = molecular target: T1, E. faecalis γ-GCS-GS; experiment: GS activity of E. faecalis γ-GCS-GS; settings: purified enzyme
[5] = substrate: NCC(=O)O; experiment: cells, lysate or membranes named; settings: other: substrate Km, GS activity; pH 7.4
[6] = substrate: N[C@@H](CCC(=O)N[C@@H](CS)C(=O)O)C(=O)O; experiment: cells, lysate or membranes named; settings: other: substrate Km, GS activity; pH 7.4
[7] = substrate: CC[C@H](N)C(=O)OC(=O)CC[C@H](N)C(=O)O; experiment: cells, lysate or membranes named; settings: other: substrate Km, GS activity; pH 7.4
[8] = substrate: N[C@@H](CS)C(=O)O; experiment: γ-GCS activity assay based on ADP formation, S. agalactiae γ-GCS-GS; type: biochemical, Streptococcus agalactiae; settings: other: substrate Km, pH 8.2, 37.0 °C
Procedure: In Table 1, a unit was defined as the amount of enzyme activity required to catalyze the formation of 1 μmol of product per hour. Specific activity was shown as units per mg protein. Activity was determined at 37° C. based on ADP formation in reaction mixtures containing L-glutamate and L-cysteine and using pyruvate kinase and lactate dehydrogenase to couple ADP formation to NADH oxidation, which was monitored at 340 nm.
At set time points ranging from one to 30 minutes, 5 μl aliquots were removed and assayed for residual enzyme activity using the standard γ-GCS assay based on ADP formation.

Which Km [1] does the source give for “E. faecalis γ-GCS-GS (Enterococcus faecalis V583)” here?
The Km was 4300 ± 50 µM.

What about the Km (N[C@@H](CS)C(=O)O) of the same molecule?
The Km was 192 ± 14 µM.

Which inhibition of γ-GCS activity [2] does the source give for “Glutathione (L-γ-glutamyl-L-cysteinylglycine) (peptide)” here?
Its inhibition of γ-GCS activity is < 5%.

B1: E. faecalis γ-GCS-GS: bifunctional γ-GCS-GS enzyme of E. faecalis (gshAB, EF3089; SEQ ID NO:12) expressed in E. coli (protein, listed as Enterococcus faecalis)
chain: MNYRELMQKKNVRPYVLMARFGLEKENQRSTREGLLATTEHPTVFGNRSYHPYIQTDFSETQLELITPVANSGTEMLRFLDAIHDVARRSIPEDEMLWPLSMPPQLPTKDEEIKIAKLDQYDAVLYRRYLAKEYGKRKQMVSGIHFNFEYDQALIQQLYDEQSEVTDCKQFKTKVYMKVARNFLRYRWLITYLFGASPVSEDRYFRVYDDQPQEPVRSIRNSTYGYRNHDNVKVSYASLERYLEDIHRMVENGLLSEEKEFYAPVRLRGGKQMSDLPKTGIRYIELRNLDLNPFSRLGIVEDTVDFLHYFMLYLLWTDEKEEADEWVKTGDIFNEQVALGHPHETIKLIAEGDRIFSEMIDMLDALGIRKGKEVVGKYYQQLRNPQDTVSGKMWTIIQENSNSELGNIFGNQYQSMAFERPYQLAGFREMELSTQIFLFDAIQKGLEIEILDEQEQFLKLQHGEHIEYVKNANMTSKDNYVVPLIMENKTVTKKILSAAGFHVPGGEEFSSFIEAQEAHLRYANKAFVVKPKSTNYGLGITIFKEGASLEDFTEALRIAFKEDTAVLIEEFLPGTEYRFFVLDNDVKAIMLRVPANVTGDGKHTVEELVAAKNSDPLRGTNHRAPLELIQLNDLEKLMLKEQGLTIYSVPEKEQIVYLRENSNVSTGGDSIDMTDVIDDSYKQIAIEAVAALGAKICGIDLIIPDKDVKGTRDSLTYGIIEANFNPAMHMHVYPYAGQGRRLTMDVLKLLYPEVVQ
How did the “ratio of activities (γ-GCS to GS)” value (E. faecalis γ-GCS-GS [3]) turn out when B1 was run?
The value was “about 0.23”.

And the γ-GCS specific activity (E. faecalis γ-GCS-GS [3]; purified enzyme)?
The γ-GCS specific activity was 240 units/mg.

What about the GS specific activity (E. faecalis γ-GCS-GS [4]) of the same molecule?
Its GS specific activity is 2297 units/mg.

B2: S. agalactiae γ-GCS-GS (Streptococcus agalactiae 2603V/R) (protein)
chain: MIIDRLLQRSHSHLPILQATFGLERESLRIHQPTQRVAQTPHPKTLGSRNYHPYIQTDYSEPQLELITPIAKDSQEAIRFLKAISDVAGRSINHDEYLWPLSMPPKVREEDIQIAQLEDAFEYDYRKYLEKTYGKLIQSISGIHYNLGLGQELLTSLFELSQADNAIDFQNQLYMKLSQNFLRYRWLLTYLYGASPVAEEDFLDQKLNNPVRSLRNSHLGYVNHKDIRISYTSLKDYVNDLENAVKSGQLIAEKEFYSPVRLRGSKACRNYLEKGITYLEFRTFDLNPFSPIGITQETVDTVHLFLLALLWIDSSSHIDQDIKEANRLNDLIALSHPLEKLPNQAPVSDLVDAMQSVIQHFNLSPYYQDLLESVKRQIQSPELTVAGQLLEMIEGLSLETFGQRQGQIYHDYAWEAPYALKGYETMELSTQLLLFDVIQKGVNFEVLDEQDQFLKLWHNSHIEYVKNGNMTSKDNYIVPLAMANKVVTKKILDEKHFPTPFGDEFTDRKEALNYFSQIQDKPIVVKPKSTNFGLGISIFKTSANLASYEKAIDIAFTEDSAILVEEYIEGTEYRFFVLEGDCIAVLLRVAANVVGDGIHTISQLVKLKNQNPLRGYDHRSPLEVIELGEVEQLMLEQQGYTVNSIPPEGTKIELRRNSNISTGGDSIDVTNTMDPTYKQLAAEMAEAMGAWVCGVDLIIPNATQAYSKDKKNATCIELNFNPLMYMHTYCQEGPGQSITPRILAKLFPEL
notes: corresponded to full-length S. agalactiae γ-GCS-GS with an N-terminal His8-tag; made in house; host or cells: E. coli SG13009 with pQE30-gshAB plus pREP4 or pRARE
Which Km [5] does the source give for B2 here?
The Km was 6 ± 0.5 mM mM.

And the Vmax [5]?
Its Vmax is 2326 ± 584 units/mg.

What about the Km [6] of the same molecule?
Its Km is 3.9 ± 0.5 mM mM.

And the Vmax [6]?
Its Vmax is 2264 ± 896 units/mg units/mg.

What about the Km [7] of the same molecule?
Its Km is 11.5 ± 1.5 mM mM.

And the Vmax [7]?
The Vmax was 2648 ± 597 units/mg units/mg.

And the Km [8]?
Its Km is 160 ± 9 μM μM.

What about the Vmax [8] of the same molecule?
The Vmax was 1126 ± 21 units/mg.
